Consider two substances from patent US7858745B2, “Use of specifically engineered enzymes to enhance the efficacy of prodrugs” (The Board of Trustees of the University of Illinois, priority 2003, dated 2010).

In data set [1] the test system is Nc1ccn([C@@H]2O[C@H](CO)[C@@H](O)C2(F)F)c(=O)n1. The data set can be described thus: purified protein, by the assay type. The settings on record: other: nucleoside as substrate, pH 7.5.
In data set [2] the test system is Nc1ccn([C@H]2CC[C@@H](CO)O2)c(=O)n1. As to the kind of experiment: purified protein, by the assay type. As to conditions: other: nucleoside as substrate, dCK 0.4 μM, ATP•Mg 1 mM, 37° C., pH 7.5.
Setting [3] is: dCK 0.4 μM, ATP•Mg 1 mM, 37° C.

Sequence of Wild Type dCK (Homo sapiens) (chain, as listed by the source): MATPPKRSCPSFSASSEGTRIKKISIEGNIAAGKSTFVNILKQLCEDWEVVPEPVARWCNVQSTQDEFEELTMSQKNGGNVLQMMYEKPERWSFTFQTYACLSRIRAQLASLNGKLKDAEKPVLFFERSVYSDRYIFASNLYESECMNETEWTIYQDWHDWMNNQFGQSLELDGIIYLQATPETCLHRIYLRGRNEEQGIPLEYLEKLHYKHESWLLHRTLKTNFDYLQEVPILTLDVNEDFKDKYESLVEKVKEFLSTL
Sequence of A100V/R104M/D133A-dCK (Homo sapiens; A100V/D133A/R104M) (chain, as listed by the source A100V R104M D133A A100V D133A R104M): as the sequence (chain, as listed by the source) above, with A100V, R104M, D133A counted along it

With “A100V/R104M/D133A-dCK (Homo sapiens; A100V/D133A/R104M)”, in data set [1] (triple mutant, 37.0 °C), the Km (in general, the substrate concentration at which the rate is half of its maximum) was 50 µM; the kcat (commonly the number of substrate molecules converted per active site and unit of time at saturation) was 3.52 s⁻¹; the kcat/Km (usually the turnover number divided by the Michaelis constant) was found to be 70400 M⁻¹ s⁻¹.
On to Wild Type dCK (Homo sapiens), for which, in data set [1] (setting [3]), the Km came out at 22.0 µM, the kcat is 0.37 s⁻¹ and the catalytic efficiency (kcat/Km) was 16800 M⁻¹ s⁻¹. In data set [2], the Km stood at 406.8 µM, the kcat is 0.18 s⁻¹ and the kcat/Km is 400 M⁻¹ s⁻¹.
